T1: Recombinant rat RIC8A (resistance to inhibitors of cholinesterase 8A) (rat, UniProt Q80ZG1 1-491, limits assumed)
T1 construct: In the FACS screening it was labelled at random on amines with DYLIGHT-405 NHS ester
T1 sequence (looked up): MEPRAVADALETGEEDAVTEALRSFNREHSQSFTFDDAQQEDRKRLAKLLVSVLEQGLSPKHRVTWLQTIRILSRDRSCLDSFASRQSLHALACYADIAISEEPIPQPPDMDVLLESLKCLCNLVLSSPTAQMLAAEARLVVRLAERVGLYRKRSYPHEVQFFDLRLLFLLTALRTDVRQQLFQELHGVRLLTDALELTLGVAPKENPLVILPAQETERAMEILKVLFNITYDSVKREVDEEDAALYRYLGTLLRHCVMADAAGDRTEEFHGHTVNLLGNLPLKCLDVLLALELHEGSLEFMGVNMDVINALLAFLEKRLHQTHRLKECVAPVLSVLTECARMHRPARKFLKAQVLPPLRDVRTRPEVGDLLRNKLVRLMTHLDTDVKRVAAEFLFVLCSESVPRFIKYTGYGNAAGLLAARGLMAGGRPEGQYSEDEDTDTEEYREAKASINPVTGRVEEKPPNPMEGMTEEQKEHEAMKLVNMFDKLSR

B1: NANOBODY CA8316 (VHH)
VHH: QLQLVESGGGLVQAGGSLRLSCAASGDTFSRYVMGWFRQAPGKERTFVVGISGGGGITRYADSVKGRFTISRDNAENTLYLEMNTLNPEDTAVYYCAATPADSAFMRNLRVYDYWGQGTQVTVSS
notes: Family 7; The same nanobody subcloned in pMESy4 and purified from E. coli is CA8332
B2: NANOBODY CA8322 (VHH)
VHH: QVQLVESEGGLVQPGGSLRLSCAASGFTFKYYYMNWVRQAPGKGLEWVSRINQLGGTSYGDSVKGRFTISRDNAKNTLYLQMNSLVPEDTAVYYCARCPAGAACKVEYDYRGQGTQVTVSS
notes: Family 16; also called CA8338 (pMESy4, E. coli)
B3: NANOBODY CA8315 (VHH)
VHH: QVQLVESGGGLVQAGGSLRLSCAASGRTFSNYAMGWFRQTPGKEREFVAAITWSGGATYYADSVKGRFIISRDNTKNTVYLQMNSLKPEDTAVYYCAADRKPYSYYPSDFGSWGQGTQVTVSS
notes: Family 5; also called CA8331 (pMESy4, E. coli)
B4: NANOBODY CA8314 (VHH)
VHH: QVQLVESGGGLVQAGDSLRLSCTASERAFSRYAMGWFRQAPGKERELVAAVSWAGGTTYYGDSVKGRFTISRDNAKITVYLQMNSLKPEDTAVYYCAAEAREFSVGSYYATEYDYWGQGTQVTVSS
notes: Family 4; also called CA8330 (pMESy4, E. coli)
B5: NANOBODY CA8312 (VHH)
VHH: QVQLVESGGGLVQAGGSKRLSCAASGRPFSNSAMGWFRQAPGKEREFVAAISWSGGNTYYADSVKGRFTISRDNAKNAVYLRMNSLEPEDTAVYYCAGDRQPYVYDLPTAQYQYDYWGQGTQVTVSS
notes: Family 1; also called CA8328 (pMESy4, E. coli)
B6: NANOBODY CA8403 (VHH)
VHH: QVQLVESGGGLVQAGGSLRLSCAASTRTFSNYVMGWFRQAPGKEREFVSAITSSGRGTSYADSVKGRFTISRDNAKNTVFLQMNSLKPEDTAVYYCAATAADYVLRSRPSVYSYWGQGTQVTVSS
notes: Family 20; also called CA8432 (pMESy4, E. coli)
B7: NANOBODY CA8319 (VHH)
VHH: QVQLVESGGGLVQAGGSLRLSCEASGRTSSSYVMGWFRRVSGKEREFVAAINPTGSSTYYADSVKGRFTISRDNSKNTVYVQMNGLKPEDTAVYYCAATRRDFYIIRNSRPQFDYWGQGTQVTVSS
notes: Family 10
B8: NANOBODY CA8402 (VHH)
VHH: QVQLVESGGGLVQAGGSLRLSCAASGRTFSNYAMGWFRQAPGKEREFVAAISWSGGKTLYAESVKGRFTISRDNAKNTVYLQMNSLKPEDTAVYYCAATPADLTVVAGPPRIEMWYWGQGTQVTVSS
notes: Family 19; also called CA8431 (pMESy4, E. coli)
B9: NANOBODY CA8318 (VHH)
VHH: QVQLVESGGGRVQAGDSLRLSCAASGRTFSPYAMGWFRQAPGKEREFVATINWSGDYTYYTDSVKGRFTTSRDNAKNTLYLEMNSLNAEDTAVYYCVARVGSPSSSDRAYQYWGQGTQVTVSS
notes: Family 8; also called CA8334 (pMESy4, E. coli)
B10: NANOBODY CA8405 (VHH)
VHH: QVQLVESGGGLVQDGGSLRLSCTASGRTFSNNAMGWFRQEPGREREFVAAIRWNGIANYADSVKGRFTISGDNAKNTVYLQMNSLKPDDTAVYYCAAAIRDGHNYYASDMRRYDYWGQGTQVTVSS
notes: Family 21; also called CA8433 (pMESy4, E. coli)
B11: NANOBODY CA8421 (VHH)
VHH: QVQLVESGGGLVQAGGSLRLSCAASGRTFSNYAMGWFRQAPGKEREFVAHITWTGGITYYSDSVKGRFIISRDNAKNTVNLQMNSLKAEDTAVYYCAADRVPYRFGVPSINEYDYWGQGTQVTVSS
notes: Family 26
B12: NANOBODY CA8411 (VHH)
VHH: QVQLVESGGGLVQAGGSLRLSCAASARTFSRYGAGWFRQAPGKEREFVGAITWGGGRTKYADSVKGRFTISRDNSKNTVYLQMNSLKSEDTAVYYCASSSIEFGPLEDTYDYWGQGTQVTVSS
notes: Family 3
B13: NANOBODY CA8424 (VHH)
VHH: QVQLVESGGDLVQAGGSLRLSCAASGGIFIINNMGWYRQTPGNQRELVAEITRAGNSNYADSVKGRFTISRDNAKNTVYLQMNRLKPEDTAVYYCNFNVRYYGEYWGQGTQVTVSS
notes: Family 29; also called CA8444 (pMESy4, E. coli)
B14: NANOBODY CA8406 (VHH)
VHH: QVQLVESGGGLVQPGGSLRLSCAASTNIFNLRSMGWYRQAPGKERELVATITTYNTNYADSVKGRFTISRDNAKKTMYLQMNSLRPEDTAVYYCNLQNRYDAMDYWGKGTQVTVSS
notes: Family 11
B15: NANOBODY CA8408 (VHH)
VHH: QVQLVESGGGLVQAGDSLRLSCAASGLIVSNYAMGWFRQAPGKEREFVAYINWNGGVTYYTNSVKGRFTISRDNAKNTVYLQMNSLKPEDTAVYYCARTSRASVTTRVADFGYWGQGTQVTVSS
notes: Family 6; also called CA8109 (pMESy4, E. coli)
B16: NANOBODY CA8419 (VHH)
VHH: QVQLVESGGGLVQPGGSLRLSCAASGFTFSRFVMNWARQAPGKGLEWVSTINSDGDVTSYADSVKGRFTISRDNAKNTLYLQMNSLKPEDTAVYYCGKGWFLNRRDESRGQGTQVTVSS
notes: Family 24
B17: NANOBODY CA8418 (VHH)
VHH: QVQLVESGGGLVQAGGSLRLSCAASGRTFSNYAMGWFRQAPGKEREFVAALTWSGGNTVYRDSVKGRFIITRDNAKNAVYLQMNSLKPEDTAVYYCASDRRPYRYNIGTAEGEYNYWGQGTQVTVSS
notes: Family 23

Each binder was assayed against T1, Recombinant rat RIC8A (resistance to …) (assay: FACS of yeast cells displaying the Nb, stained with 1 µM RIC8A-DYLIGHT-405; black = clone (CA8316 per legend), grey = irrelevant Nb).

Binder | binding result
B1 | no binding (tested: 1 µM)

The binders below were run against T2, Recombinant Gαi1 (heterotrimeric G protein alpha subunit i1) (rat, UniProt P10824 1-354) (assay: FACS of yeast cells displaying the Nb, stained with 1 µM Gαi1(GDP)-DYLIGHT-488; black = clone (CA8316 per legend), grey = irrelevant Nb).
T2 construct: In the FACS screening it was labelled at random on amines with DYLIGHT-488 NHS ester; The sentence reads 'Recombinant rat RIC8A (uniprot:Q80ZG1) and Gαi1 (uniprot:P10824)'
T2 sequence (P10824 whole entry, one chain of several): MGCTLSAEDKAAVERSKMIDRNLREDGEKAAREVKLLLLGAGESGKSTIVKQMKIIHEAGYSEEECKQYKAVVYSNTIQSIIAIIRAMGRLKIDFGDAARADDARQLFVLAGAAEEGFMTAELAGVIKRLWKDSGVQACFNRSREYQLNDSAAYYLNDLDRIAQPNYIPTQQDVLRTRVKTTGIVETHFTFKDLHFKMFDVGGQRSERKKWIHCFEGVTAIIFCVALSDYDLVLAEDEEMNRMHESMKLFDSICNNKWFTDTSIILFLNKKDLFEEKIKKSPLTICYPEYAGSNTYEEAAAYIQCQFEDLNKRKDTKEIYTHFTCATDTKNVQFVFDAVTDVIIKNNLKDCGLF

Binder | binding result
B1 | no binding (tested: 1 µM)

Each binder was assayed against T2, Recombinant Gαi1 (heterotrimeric G …) (assay: FACS of yeast cells displaying the Nb, stained with 1 µM Gαi1(GDP)-DYLIGHT-488; black = clone (CA8322 per legend), grey = irrelevant Nb).

Binder | binding result
B2 | no binding (tested: 1 µM)

These binders were tested against T1, Recombinant rat RIC8A (resistance to …) (assay: FACS on single yeast clone displaying the Nb; RIC8A-DYLIGHT-405).

Binder | binding result
B3 | no binding (tested: 1 µM)
B4 | no binding (tested: 1 µM)
B5 | no binding (tested: 1 µM)
B6 | no binding (tested: 1 µM)
B7 | no binding (tested: 1 µM)
B8 | no binding (tested: 1 µM)
B9 | no binding (tested: 1 µM)
B10 | no binding (tested: 1 µM)

These binders were tested against T2, Recombinant Gαi1 (heterotrimeric G …) (assay: FACS on single yeast clone displaying the Nb; Gαi1-DYLIGHT-488).

Binder | binding result
B3 | no binding (tested: 1 µM)
B4 | no binding (tested: 1 µM)
B11 | no binding (tested: 1 µM)
B12 | no binding (tested: 1 µM)
B5 | no binding (tested: 1 µM)
B6 | no binding (tested: 1 µM)
B7 | no binding (tested: 1 µM)
B8 | no binding (tested: 1 µM)
B13 | no binding (tested: 1 µM)
B14 | no binding (tested: 1 µM)
B15 | no binding (tested: 1 µM)
B16 | no binding (tested: 1 µM)
B9 | no binding (tested: 1 µM)
B17 | no binding (tested: 1 µM)
B10 | no binding (tested: 1 µM)

Reference: patent publication US20170160285A1 (VIB VZW, published 2017)
